Experimental findings from patent US20060160174A1 (published 2006) are described below.

Residue numbers refer to the chain shown, from its start. In names and notes the source's numbering stands.

T1: soluble p97 (amino acids 20-710 of human p97 precursor), 6x his tag (human, UniProt P08582 20-710)
T1 construct: range 20-710; also called p97 melanotransferrin; recombinant p97; not shown: 6x his tag from vector pSecTag2
T1 sequence: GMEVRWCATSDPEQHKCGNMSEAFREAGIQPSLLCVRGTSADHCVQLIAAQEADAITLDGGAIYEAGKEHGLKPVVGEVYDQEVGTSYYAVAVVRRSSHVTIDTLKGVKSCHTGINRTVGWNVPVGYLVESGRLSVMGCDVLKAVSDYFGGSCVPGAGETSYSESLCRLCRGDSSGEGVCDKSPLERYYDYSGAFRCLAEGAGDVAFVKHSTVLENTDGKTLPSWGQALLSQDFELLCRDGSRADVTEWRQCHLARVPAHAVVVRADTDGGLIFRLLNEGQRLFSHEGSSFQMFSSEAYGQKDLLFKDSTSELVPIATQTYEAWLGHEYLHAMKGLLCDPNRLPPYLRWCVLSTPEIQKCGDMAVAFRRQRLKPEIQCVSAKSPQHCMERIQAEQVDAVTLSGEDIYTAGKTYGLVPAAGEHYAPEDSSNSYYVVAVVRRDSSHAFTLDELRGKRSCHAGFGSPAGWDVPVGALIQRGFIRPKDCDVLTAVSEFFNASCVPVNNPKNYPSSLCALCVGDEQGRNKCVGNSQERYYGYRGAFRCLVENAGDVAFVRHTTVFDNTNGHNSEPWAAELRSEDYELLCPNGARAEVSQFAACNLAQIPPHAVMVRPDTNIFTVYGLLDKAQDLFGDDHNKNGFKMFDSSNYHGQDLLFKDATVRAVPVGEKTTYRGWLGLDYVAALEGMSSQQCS

T2: p97 antigen on human melanoma H3677 cells (human, UniProt P08582 20-709)
T2 sequence: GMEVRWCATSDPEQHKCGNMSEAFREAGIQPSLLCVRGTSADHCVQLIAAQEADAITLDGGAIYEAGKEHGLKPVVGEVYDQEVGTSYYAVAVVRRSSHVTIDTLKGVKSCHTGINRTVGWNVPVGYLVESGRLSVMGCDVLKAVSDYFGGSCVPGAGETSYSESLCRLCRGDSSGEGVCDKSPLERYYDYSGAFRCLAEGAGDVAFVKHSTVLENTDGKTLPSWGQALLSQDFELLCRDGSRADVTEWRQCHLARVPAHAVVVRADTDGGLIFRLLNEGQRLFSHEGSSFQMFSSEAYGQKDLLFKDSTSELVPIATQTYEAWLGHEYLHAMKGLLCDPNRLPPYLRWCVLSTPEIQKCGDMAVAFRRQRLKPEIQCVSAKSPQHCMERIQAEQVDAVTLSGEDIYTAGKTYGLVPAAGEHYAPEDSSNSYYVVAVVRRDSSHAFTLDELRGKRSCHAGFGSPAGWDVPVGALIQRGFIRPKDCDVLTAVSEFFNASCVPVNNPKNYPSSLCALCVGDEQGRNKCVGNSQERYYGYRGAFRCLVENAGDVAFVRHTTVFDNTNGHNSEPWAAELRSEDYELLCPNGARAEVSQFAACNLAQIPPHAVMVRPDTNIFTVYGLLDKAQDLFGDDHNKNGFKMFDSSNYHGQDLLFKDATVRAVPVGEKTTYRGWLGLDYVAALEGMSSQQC

B1: L49-sFv-bL mutant FP950 (N H91 Y) (scFv)
scFv: MEVQLQESGPSLVKPSQTLSLTCSVTGDSITSGYWNWIRKFPGNKLEYMGYISDSGITYYNPSLKSRISITRDTSKNQYYLQLNFVTAEDTATYYCARRTLATYYAMDYWGQGTSVTVSSGSTSGSGKPGSGEGSTKGDFVMTQTPLSLPVSLGDQASISCRASQSLVHSNGNTYLHWYLQKPGQSPKLLIYRVSNRFSGVPDRFSGSGSGTDFTLKISRVEAEDLGVYFCSQSTHVPPTFGGGTKLEIKRTPVSEKQLAEVVANTITPLMKAQSVPGMAVAVIYQGKPHYYTFGKADIAANKPVTPQTLFELGSISKTFTGVLGGDAIARGEISLDDAVTRYWPQLTGKQWQGIRMLDLATYTAGGLPLQVPDEVTDNASLLRFYQNWQPQWKPGTTRLYANASIGLFGALAVKPSGMPYEQAMTTRVLKPLKLDHTWINVPKAEEAHYAWGYRDGKAVRVSPGMLDAQAYGVKTNVQDMANWVMANMAPENVADASLKQGIALAQSRYWRIGSMYQGLGWEMLNWPVEANTVVETSFGNVALAPLPVAEVNPPAPPVKASWVHKTGSTGGFGSYVAFIPEKQIGIVMLANTSYPNPARVEAAYHILEALQ
B2: L49-sFv-bL mutant FP945 (F H82B S) (scFv)
scFv: B1 scFv with F85S, Y95N
B3: 935 (scFv)
chain: B1 scFv with Y48W, Y95N
notes: also called FP935; L49-sFv-bL mutant FP935 (Y H47 W)
B4: L49-sFv-bL mutant FP930 (K H39 Q) (scFv)
scFv: B1 scFv with K40Q, Y95N
B5: 940 (scFv)
chain: B1 scFv with Y79A, Y95N
notes: also called FP940; L49-sFv-bL mutant FP940 (Y H78 A)
B6: reverse orientation triple mutant FP999 (K H39 Q, F H82B S, N H91 Y, bL-L49-sFv orientation) (scFv)
chain: TPVSEKQLAEVVANTITPLMKAQSVPGMAVAVIYQGKPHYYTFGKADIAANKPVTPQTLFELGSISKTFTGVLGGDAIARGEISLDDAVTRYWPQLTGKQWQGIRMLDLATYTAGGLPLQVPDEVTDNASLLRFYQNWQPQWKPGTTRLYANASIGLFGALAVKPSGMPYEQAMTTRVLKPLKLDHTWINVPKAEEAHYAWGYRDGKAVRVSPGMLDAQAYGVKTNVQDMANWVMANMAPENVADASLKQGIALAQSRYWRIGSMYQGLGWEMLNWPVEANTVVETSFGNVALAPLPVAEVNPPAPPVKASWVHKTGSTGGFGSYVAFIPEKQIGIVMLANTSYPNPARVEAAYHILEALQMHGTKLMEVQLQESGPSLVKPSQTLSLTCSVTGDSITSGYWNWIRQFPGNKLEYMGYISDSGITYYNPSLKSRISITRDTSKNQYYLQLNSVTAEDTATYYCARRTLATYYAMDYWGQGTSVTVSSGSTSGSGKPGSGEGSTKGDFVMTQTPLSLPVSLGDQASISCRASQSLVHSNGNTYLHWYLQKPGQSPKLLIYRVSNRFSGVPDRFSGSGSGTDFTLKISRVEAEDLGVYFCSQSTHVPPTFGGGTKLEIKR
notes: also called bL-L49-scFv
B7: L49-sFv-bL triple mutant FP990 (K H39 Q, F H82B S, N H91 Y) (scFv)
scFv: B1 scFv with K40Q, F85S
B8: parental L49-sFv-bL fusion protein FP95 (scFv)
scFv: B1 scFv with Y95N
notes: also called L49-scFv-bL; parental molecule
B9: L49-sFv-bL double mutant FP960 (F H82B S, N H91 Y) (scFv)
scFv: B1 scFv with F85S
B10: L49-sFv-bL double mutant FP965 (K H39 Q, N H91 Y) (scFv)
scFv: B1 scFv with K40Q

For the first assay, the target named is T1, soluble p97 (amino acids 20-710 of …). As to the kind of experiment: solid-phase binding assay on wells coated with soluble p97; crude refold normalised on beta-lactamase activity; nitrocefin read-out, OD 490 nm [a].
With B1, the binding result is listed as “binds”.

On to B2, for which the binding result is given as “binds”.

For B3, the binding result is reported as “binds”.

As to B4, the binding result was “binds”.

Turning to B5, the binding result is recorded as “binds”.

Another assay deals with T2, p97 antigen on human melanoma H3677 …. Nature of the assay: cell-based or functional assay.
For B6, the “IC50 of prodrug C-Mel on H3677 melanoma cells pre-treated with 10 nM fusion protein, unbound material washed off; cell viability by alamarBlue” value worked out at 5000 nM.

As for B7, the “IC50 of prodrug C-Mel on H3677 melanoma cells pre-treated with 10 nM fusion protein, unbound material washed off; cell viability by alamarBlue” value was 5000 nM.

In a further assay the target is T1, soluble p97 (amino acids 20-710 of …). Nature of the assay: SPR, Biacore 2000, 25 C; p97 immobilised on CM5 chip, scFv fusion injected; 1:1 model. (SPR reads the build-up and loss of mass on a sensor chip optically.)
For orientation: Kd means a measure of binding affinity in units of concentration. Read a high Kd as lower affinity. By koff is commonly meant the rate constant with which the complex falls apart. Read a high koff as a short-lived complex. The term kon denotes a measure of how fast the partners come together. Low readings indicate slower complex formation, high ones faster complex formation. For B6, the Kd was found to be 1.71 nM, the koff turned out to be 0.000575 s⁻¹ and the kon is 337000 M⁻¹ s⁻¹.

B8 displayed a dissociation constant (Kd) of 2.31 nM, a koff of 0.0007 s⁻¹ and a kon of 304000 M⁻¹ s⁻¹.

Regarding B9, the Kd came to 1.75 nM, the koff worked out at 0.000638 s⁻¹ and the kon amounted to 364000 M⁻¹ s⁻¹.

On to B7, for which the Kd was found to be 1.75 nM, the koff amounted to 0.000782 s⁻¹ and the on-rate constant (kon) worked out at 448000 M⁻¹ s⁻¹.

The molecule B10 displayed a Kd of 1.91 nM, a koff of 0.000765 s⁻¹ and a kon of 400000 M⁻¹ s⁻¹.

Another assay shares this target. Nature of the assay: SEC binding assay with purified p97 (discussion of the example).
On to B9, for which the “percent of purified protein bound to antigen” value worked out at 100%.

As for B7, the “percent of purified protein bound to antigen” value turned out to be 100%.

Take B10: the “percent of purified protein bound to antigen” value came out at 100%.
